Assays:
Assay in all cases: EMSA
Conditions in all cases: tags: MBP fusion
ZFP SBS#1058 = target: T1, ZFP SBS#1058 (synthetic)
T1 chain: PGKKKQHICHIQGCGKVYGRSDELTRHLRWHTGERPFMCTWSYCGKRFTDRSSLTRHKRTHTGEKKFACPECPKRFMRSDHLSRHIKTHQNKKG
Method in brief: (§1)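 Purified ZFP was titrated against labeled double-stranded target (1 nM or lower, at least 10-fold below expected Kd) carrying the natural binding site with flanks. Binding buffer was 10 mM Tris pH 7.5, 100 mM KCl, 1 mM MgCl2, 0.1 mM ZnCl2, 5 mM DTT, 10% glycerol, 0.02% BSA, with equilibration for at least 45 min. Bound and free target were separated on a 10% polyacrylamide gel.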

ZFP SBS#1059 = target: T2, ZFP SBS#1059 (synthetic)
T2 chain: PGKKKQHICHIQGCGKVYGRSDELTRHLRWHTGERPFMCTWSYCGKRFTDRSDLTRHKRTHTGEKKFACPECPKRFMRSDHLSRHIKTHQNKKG
Method in brief: as §1

ZFP SBS#1054 = ZFP SBS#1054 (synthetic)
Method in brief: as §1

ZFP SBS#1056 = ZFP SBS#1056 (synthetic)
Method in brief: as §1

ZFP SBS#1055 = target: T3, ZFP SBS#1055 (synthetic)
T3 chain: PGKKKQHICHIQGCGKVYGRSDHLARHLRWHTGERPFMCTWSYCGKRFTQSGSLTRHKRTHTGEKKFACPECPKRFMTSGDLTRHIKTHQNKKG
Method in brief: as §1

ZFP SBS#1057 = ZFP SBS#1057 (synthetic)
Method in brief: as §1

ZFP SBS#453 = ZFP SBS#453 (synthetic)
Method in brief: as §1

ZFP SBS#441 = ZFP SBS#441 (synthetic)
Method in brief: as §1

ZFP SBS#1060 = target: T4, ZFP SBS#1060 (synthetic)
T4 chain: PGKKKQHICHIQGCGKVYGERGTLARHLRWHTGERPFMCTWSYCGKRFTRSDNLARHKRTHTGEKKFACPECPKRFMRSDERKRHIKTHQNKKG
Method in brief: as §1

ZFP SBS#461 = target: T5, ZFP SBS#461 (synthetic)
T5 chain: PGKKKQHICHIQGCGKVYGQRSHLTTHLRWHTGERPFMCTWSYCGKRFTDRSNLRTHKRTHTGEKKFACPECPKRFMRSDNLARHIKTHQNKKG
Method in brief: as §1

ZFP SBS#1049 = target: T6, ZFP SBS#1049 (synthetic)
T6 chain: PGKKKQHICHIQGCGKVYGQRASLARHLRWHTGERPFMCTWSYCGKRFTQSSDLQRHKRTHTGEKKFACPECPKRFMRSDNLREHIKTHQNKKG
Method in brief: as §1

ZFP SBS#1048 = target: T7, ZFP SBS#1048 (synthetic)
T7 chain: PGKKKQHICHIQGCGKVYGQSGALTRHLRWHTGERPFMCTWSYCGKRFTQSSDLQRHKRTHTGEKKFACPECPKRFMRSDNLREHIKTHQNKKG
Method in brief: as §1

ZFP SBS#1050 = ZFP SBS#1050 (synthetic)
Method in brief: as §1

ZFP SBS#1053 = target: T8, ZFP SBS#1053 (synthetic)
T8 chain: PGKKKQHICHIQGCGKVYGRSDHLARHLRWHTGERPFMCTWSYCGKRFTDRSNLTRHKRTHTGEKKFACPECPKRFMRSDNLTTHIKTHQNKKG
Method in brief: as §1

ZFP SBS#1052 = target: T9, ZFP SBS#1052 (synthetic)
T9 chain: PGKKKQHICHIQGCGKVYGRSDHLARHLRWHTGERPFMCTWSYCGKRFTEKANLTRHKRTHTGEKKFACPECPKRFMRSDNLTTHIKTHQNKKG
Method in brief: as §1

ZFP SBS#1034 = target: T10, ZFP SBS#1034 (synthetic)
T10 chain: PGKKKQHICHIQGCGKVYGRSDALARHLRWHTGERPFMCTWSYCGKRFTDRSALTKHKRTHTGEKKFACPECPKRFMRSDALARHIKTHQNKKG
Method in brief: as §1

ZFP SBS#1033 = target: T11, ZFP SBS#1033 (synthetic)
T11 chain: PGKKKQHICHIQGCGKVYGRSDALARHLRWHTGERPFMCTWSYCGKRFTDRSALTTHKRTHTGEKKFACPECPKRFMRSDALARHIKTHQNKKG
Method in brief: as §1

ZFP SBS#1035 = target: T12, ZFP SBS#1035 (synthetic)
T12 chain: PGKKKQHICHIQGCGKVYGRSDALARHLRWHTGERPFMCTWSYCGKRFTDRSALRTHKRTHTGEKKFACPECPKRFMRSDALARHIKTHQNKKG
Method in brief: as §1

ZFP SBS#1062 = target: T13, ZFP SBS#1062 (synthetic)
T13 chain: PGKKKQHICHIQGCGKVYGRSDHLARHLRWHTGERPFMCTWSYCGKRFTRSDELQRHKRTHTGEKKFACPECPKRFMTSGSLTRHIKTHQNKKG
Method in brief: as §1

ZFP SBS#1063 = target: T14, ZFP SBS#1063 (synthetic, UniProt P08047)
T14 chain: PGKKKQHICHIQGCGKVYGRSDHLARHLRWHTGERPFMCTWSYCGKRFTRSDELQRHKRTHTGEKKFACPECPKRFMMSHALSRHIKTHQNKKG
Method in brief: as §1

ZFP SBS#1061 = ZFP SBS#1061 (synthetic)
Method in brief: as §1

ZFP SBS#1051 = target: T15, ZFP SBS#1051 (synthetic)
T15 chain: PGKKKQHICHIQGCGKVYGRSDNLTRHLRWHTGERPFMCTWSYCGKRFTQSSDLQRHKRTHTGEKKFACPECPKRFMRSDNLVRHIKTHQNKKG
Method in brief: as §1

ZFP SBS#1044 = target: T16, ZFP SBS#1044 (synthetic)
T16 chain: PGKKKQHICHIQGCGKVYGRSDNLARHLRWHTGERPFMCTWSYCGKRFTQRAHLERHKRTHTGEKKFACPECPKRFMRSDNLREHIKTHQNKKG
Method in brief: as §1

ZFP SBS#1043 = ZFP SBS#1043 (synthetic)
Method in brief: as §1

ZFP SBS#993 = target: T17, ZFP SBS#993 (synthetic, UniProt P08047)
T17 chain: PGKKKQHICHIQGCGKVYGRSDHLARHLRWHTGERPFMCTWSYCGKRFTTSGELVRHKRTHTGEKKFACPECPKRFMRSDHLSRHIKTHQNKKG
Method in brief: as §1

ZFP SBS#941 = target: T18, ZFP SBS#941 (synthetic)
T18 chain: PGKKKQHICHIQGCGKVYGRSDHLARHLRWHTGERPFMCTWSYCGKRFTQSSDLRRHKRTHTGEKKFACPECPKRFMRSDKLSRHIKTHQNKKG
Method in brief: as §1

ZFP SBS#944 = ZFP SBS#944 (synthetic, UniProt P08047)
Method in brief: as §1

ZFP SBS#943 = target: T19, ZFP SBS#943 (synthetic)
T19 chain: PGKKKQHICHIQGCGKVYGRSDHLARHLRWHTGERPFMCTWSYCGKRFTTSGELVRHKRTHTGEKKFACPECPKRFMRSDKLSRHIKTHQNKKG
Method in brief: as §1

ZFP SBS#1039 = target: T20, ZFP SBS#1039 (synthetic)
T20 chain: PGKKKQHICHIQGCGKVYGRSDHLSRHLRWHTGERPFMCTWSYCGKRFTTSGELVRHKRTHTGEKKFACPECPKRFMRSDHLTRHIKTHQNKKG
Method in brief: as §1

ZFP SBS#942 = ZFP SBS#942 (synthetic, UniProt P08047)
Method in brief: as §1

ZFP SBS#1040 = ZFP SBS#1040 (synthetic, UniProt P08047)
Method in brief: as §1

ZFP SBS#1041 = target: T21, ZFP SBS#1041 (synthetic)
T21 chain: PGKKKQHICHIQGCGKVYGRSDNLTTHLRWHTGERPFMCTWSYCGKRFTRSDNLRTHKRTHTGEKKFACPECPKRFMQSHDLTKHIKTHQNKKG
Method in brief: as §1

ZFP SBS#919 = target: T22, ZFP SBS#919 (synthetic)
T22 chain: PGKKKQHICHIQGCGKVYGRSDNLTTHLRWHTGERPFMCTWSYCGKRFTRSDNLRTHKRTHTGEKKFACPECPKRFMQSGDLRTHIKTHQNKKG
Method in brief: as §1

ZFP SBS#1047 = target: T23, ZFP SBS#1047 (synthetic)
T23 chain: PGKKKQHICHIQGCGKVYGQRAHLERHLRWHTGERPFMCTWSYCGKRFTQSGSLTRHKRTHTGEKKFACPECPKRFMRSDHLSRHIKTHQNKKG
Method in brief: as §1

ZFP SBS#1045 = ZFP SBS#1045 (synthetic)
Method in brief: as §1

ZFP SBS#1046 = ZFP SBS#1046 (synthetic)
Method in brief: as §1

ZFP SBS#1038 = ZFP SBS#1038 (synthetic)
Method in brief: as §1

ZFP SBS#1037 = ZFP SBS#1037 (synthetic)
Method in brief: as §1

ZFP SBS#1050 (synthetic), sequence (chain, as listed by the source): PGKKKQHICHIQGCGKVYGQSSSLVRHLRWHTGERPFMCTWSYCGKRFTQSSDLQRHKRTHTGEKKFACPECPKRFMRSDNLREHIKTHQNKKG
ZFP SBS#441 (synthetic), sequence (chain, as listed by the source): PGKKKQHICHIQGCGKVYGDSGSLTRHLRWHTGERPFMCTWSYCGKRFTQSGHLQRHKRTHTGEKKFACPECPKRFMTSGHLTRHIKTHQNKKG
ZFP SBS#1040, sequence (P08047 other isoform, or with tags, fused parts or gaps): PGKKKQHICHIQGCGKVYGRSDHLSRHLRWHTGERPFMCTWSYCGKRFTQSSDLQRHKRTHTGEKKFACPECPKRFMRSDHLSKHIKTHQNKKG
ZFP SBS#1038 (synthetic), sequence (chain, as listed by the source): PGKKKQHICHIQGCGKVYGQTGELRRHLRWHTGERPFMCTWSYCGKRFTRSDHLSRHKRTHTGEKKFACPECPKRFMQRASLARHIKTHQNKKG
ZFP SBS#1043 (synthetic), sequence (chain, as listed by the source): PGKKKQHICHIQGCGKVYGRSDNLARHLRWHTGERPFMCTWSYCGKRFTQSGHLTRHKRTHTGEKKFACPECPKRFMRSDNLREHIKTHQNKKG
ZFP SBS#942, sequence (P08047 other isoform, or with tags, fused parts or gaps): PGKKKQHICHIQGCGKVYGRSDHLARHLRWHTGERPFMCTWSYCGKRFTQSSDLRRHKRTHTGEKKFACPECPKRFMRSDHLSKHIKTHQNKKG
ZFP SBS#1056 (synthetic), sequence (chain, as listed by the source): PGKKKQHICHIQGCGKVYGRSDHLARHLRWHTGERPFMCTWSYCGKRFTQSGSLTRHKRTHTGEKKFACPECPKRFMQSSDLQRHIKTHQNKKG
ZFP SBS#1037 (synthetic), sequence (chain, as listed by the source): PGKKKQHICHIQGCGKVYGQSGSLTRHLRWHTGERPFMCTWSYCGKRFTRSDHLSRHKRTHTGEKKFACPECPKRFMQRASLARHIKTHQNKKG
ZFP SBS#1061 (synthetic), sequence (chain, as listed by the source): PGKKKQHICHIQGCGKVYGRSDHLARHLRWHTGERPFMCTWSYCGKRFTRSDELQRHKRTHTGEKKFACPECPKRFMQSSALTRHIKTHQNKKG
ZFP SBS#944, sequence (P08047 other isoform, or with tags, fused parts or gaps): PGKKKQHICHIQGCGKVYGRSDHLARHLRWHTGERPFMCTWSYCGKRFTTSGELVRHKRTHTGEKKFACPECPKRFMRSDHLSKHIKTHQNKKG
ZFP SBS#453 (synthetic), sequence (chain, as listed by the source): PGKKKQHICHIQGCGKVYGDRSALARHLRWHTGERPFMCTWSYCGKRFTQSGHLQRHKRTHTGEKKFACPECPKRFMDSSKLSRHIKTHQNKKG
ZFP SBS#1057 (synthetic), sequence (chain, as listed by the source): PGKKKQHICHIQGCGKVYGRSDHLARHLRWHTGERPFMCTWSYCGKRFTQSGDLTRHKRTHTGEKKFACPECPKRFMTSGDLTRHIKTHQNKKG
ZFP SBS#1045 (synthetic), sequence (chain, as listed by the source): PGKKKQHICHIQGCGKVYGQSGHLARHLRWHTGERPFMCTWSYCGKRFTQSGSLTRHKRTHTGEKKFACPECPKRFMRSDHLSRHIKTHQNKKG

B1: GGGGCCGCG (dsDNA)
DNA 1: GGGGCCGCG
DNA 2: CGCGGCCCC
Kd (ZFP SBS#1058): 6.28 nM
Kd (ZFP SBS#1059): 0.152 nM

B2: GCTGCAGGG (dsDNA)
DNA 1: GCTGCAGGG
DNA 2: CCCTGCAGC
Kd (ZFP SBS#1054): 0.033 nM
Kd (ZFP SBS#1056): 0.045 nM
Kd (ZFP SBS#1055): 18.7 nM
Kd (ZFP SBS#1057): 0.483 nM

B3: GGTGGAGTCA (dsDNA)
DNA 1: GGTGGAGTCA
DNA 2: TGACTCCACC
Kd (ZFP SBS#453): 150 nM
Kd (ZFP SBS#441): 250 nM

B4: GCGGAGGCC (dsDNA)
DNA 1: GCGGAGGCC
DNA 2: GGCCTCCGC
Kd (ZFP SBS#1060): 0.69 nM

B5: GAGTACTGTA (dsDNA)
DNA 1: GAGTACTGTA
DNA 2: TACAGTACTC
Kd (ZFP SBS#461): 120 nM

B6: CAGGCTGTA (dsDNA)
DNA 1: CAGGCTGTA
DNA 2: TACAGCCTG
Kd (ZFP SBS#1049): 55.6 nM
Kd (ZFP SBS#1048): 1.39 nM
Kd (ZFP SBS#1050): 0.125 nM

B7: TAGGACGGG (dsDNA)
DNA 1: TAGGACGGG
DNA 2: CCCGTCCTA
Kd (ZFP SBS#1053): 0.025 nM
Kd (ZFP SBS#1052): 0.28 nM

B8: GTGTTCGTG (dsDNA)
DNA 1: GTGTTCGTG
DNA 2: CACGAACAC
Kd (ZFP SBS#1034): 14.6 nM
Kd (ZFP SBS#1033): 685 nM
Kd (ZFP SBS#1035): 56 nM

B9: GTTGCGGGG (dsDNA)
DNA 1: GTTGCGGGG
DNA 2: CCCCGCAAC
Kd (ZFP SBS#1062): 0.068 nM
Kd (ZFP SBS#1063): 0.96 nM
Kd (ZFP SBS#1061): 0.165 nM

B10: GAGGCTGAG (dsDNA)
DNA 1: GAGGCTGAG
DNA 2: CTCAGCCTC
Kd (ZFP SBS#1051): 0.02 nM

B11: CAGGGAGAG (dsDNA)
DNA 1: CAGGGAGAG
DNA 2: CTCTCCCTG
Kd (ZFP SBS#1044): 1.07 nM
Kd (ZFP SBS#1043): 0.16 nM

B12: GGGGCTGGG (dsDNA)
DNA 1: GGGGCTGGG
DNA 2: CCCAGCCCC
Kd (ZFP SBS#993): 3.1 nM
Kd (ZFP SBS#941): 0.077 nM
Kd (ZFP SBS#944): 0.027 nM
Kd (ZFP SBS#943): 0.067 nM
Kd (ZFP SBS#1039): 1.37 nM
Kd (ZFP SBS#942): 0.13 nM
Kd (ZFP SBS#1040): 0.05 nM

B13: TCATAGTAG (dsDNA)
DNA 1: TCATAGTAG
DNA 2: CTACTATGA
Kd (ZFP SBS#1041): 2.06 nM
Kd (ZFP SBS#919): 250 nM

B14: GGGGCAGGA (dsDNA)
DNA 1: GGGGCAGGA
DNA 2: TCCTGCCCC
Kd (ZFP SBS#1047): 24.7 nM
Kd (ZFP SBS#1045): 0.15 nM
Kd (ZFP SBS#1046): 0.09 nM

B15: GTAGGGGCA (dsDNA)
DNA 1: GTAGGGGCA
DNA 2: TGCCCCTAC
Kd (ZFP SBS#1038): 0.152 nM
Kd (ZFP SBS#1037): 0.05 nM
